# Assay results as given in US20040038894A1, “Compounds for modulating cell negative regulations and biological applications thereof” (INSTITUT NATIONAL DE LA SANTE ET DE LA RECHERCHE MEDICALE …, priority 1996, published 2004).
# Where no end group is shown, it is not given here. [ ]: non-standard residue; d: D form. The star is where a group is joined. Biotin = O=C1N[C@H]2[C@H](CS[C@H]2CCCCC(=O)*)N1; pY = N[C@@H](Cc1ccc(OP(=O)(O)O)cc1)C(=O)O
# T1: GST-SHIP.SH2 fusion protein (murine, UniProt Q9ES52 8-104)
# T1 construct: also called SH2 domain of SHIP; not shown: Glutathione S-transferase (GST) fusion partner
# T1 sequence (looked up): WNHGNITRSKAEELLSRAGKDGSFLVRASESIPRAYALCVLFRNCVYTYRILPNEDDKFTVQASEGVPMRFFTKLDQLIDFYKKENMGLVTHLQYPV
# T2: SHIP polyinositol phosphatase from RBL-2H3 cell lysates (rat (cell line RBL-2H3), UniProt P97573 1-1190, limits assumed)
# T2 construct: Detected by immunoblot with anti-SHIP antiserum
# T2 sequence (looked up): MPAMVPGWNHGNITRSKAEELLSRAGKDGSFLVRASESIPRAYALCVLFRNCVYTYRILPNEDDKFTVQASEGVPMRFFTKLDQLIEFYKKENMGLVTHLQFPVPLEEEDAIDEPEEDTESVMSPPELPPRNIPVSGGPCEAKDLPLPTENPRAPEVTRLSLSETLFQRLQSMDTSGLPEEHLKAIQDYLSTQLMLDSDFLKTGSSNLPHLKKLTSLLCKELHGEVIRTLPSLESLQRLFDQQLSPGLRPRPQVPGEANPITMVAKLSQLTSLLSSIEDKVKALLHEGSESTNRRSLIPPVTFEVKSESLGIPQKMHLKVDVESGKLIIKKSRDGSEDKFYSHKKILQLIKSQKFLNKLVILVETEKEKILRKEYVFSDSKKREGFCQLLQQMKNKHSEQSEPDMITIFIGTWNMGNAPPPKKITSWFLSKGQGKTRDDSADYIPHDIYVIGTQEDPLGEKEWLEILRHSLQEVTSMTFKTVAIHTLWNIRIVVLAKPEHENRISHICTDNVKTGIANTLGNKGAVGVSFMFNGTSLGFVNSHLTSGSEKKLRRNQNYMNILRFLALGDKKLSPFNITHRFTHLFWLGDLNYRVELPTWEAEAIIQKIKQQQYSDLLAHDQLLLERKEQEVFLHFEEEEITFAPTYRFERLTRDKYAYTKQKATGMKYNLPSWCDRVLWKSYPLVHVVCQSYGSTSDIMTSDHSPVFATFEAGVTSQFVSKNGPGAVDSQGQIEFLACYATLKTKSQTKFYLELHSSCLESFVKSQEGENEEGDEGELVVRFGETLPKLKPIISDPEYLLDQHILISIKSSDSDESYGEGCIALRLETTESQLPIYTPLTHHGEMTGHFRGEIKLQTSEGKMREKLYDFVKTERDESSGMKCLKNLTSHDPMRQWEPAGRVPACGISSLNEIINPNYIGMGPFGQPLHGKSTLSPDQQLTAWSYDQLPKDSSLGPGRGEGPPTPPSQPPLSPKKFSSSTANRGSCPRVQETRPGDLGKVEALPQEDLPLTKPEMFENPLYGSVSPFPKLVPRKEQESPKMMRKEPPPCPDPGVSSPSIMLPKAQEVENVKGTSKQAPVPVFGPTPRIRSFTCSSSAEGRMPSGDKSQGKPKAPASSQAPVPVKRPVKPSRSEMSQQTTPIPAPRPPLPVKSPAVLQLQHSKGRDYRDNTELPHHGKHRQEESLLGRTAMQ
# T3: SHP-2 protein tyrosine phosphatase from RBL-2H3 cell lysates (rat (cell line RBL-2H3), UniProt P41499 2-593)
# T3 construct: Detected by immunoblot with anti-SHP-2 mAb
# T3 sequence (looked up): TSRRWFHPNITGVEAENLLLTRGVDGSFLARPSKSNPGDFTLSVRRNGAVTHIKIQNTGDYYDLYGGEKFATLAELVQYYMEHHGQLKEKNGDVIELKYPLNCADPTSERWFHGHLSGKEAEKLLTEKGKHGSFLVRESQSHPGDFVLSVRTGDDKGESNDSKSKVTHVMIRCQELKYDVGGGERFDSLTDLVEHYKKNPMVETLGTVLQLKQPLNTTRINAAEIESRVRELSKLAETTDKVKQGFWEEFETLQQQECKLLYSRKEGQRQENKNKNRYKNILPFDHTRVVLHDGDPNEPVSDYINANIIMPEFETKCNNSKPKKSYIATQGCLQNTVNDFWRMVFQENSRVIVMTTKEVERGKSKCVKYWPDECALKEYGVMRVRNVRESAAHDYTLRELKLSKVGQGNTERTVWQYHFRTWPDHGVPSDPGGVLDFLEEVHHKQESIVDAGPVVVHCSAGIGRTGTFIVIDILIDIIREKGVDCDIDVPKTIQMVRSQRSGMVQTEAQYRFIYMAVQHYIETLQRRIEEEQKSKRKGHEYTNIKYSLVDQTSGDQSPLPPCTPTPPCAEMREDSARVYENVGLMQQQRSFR
# How the values were obtained:
# [1] = target: T1, GST-SHIP.SH2 fusion protein; experiment: SPR (BIAcore) with recombinant GST fusion protein
# Procedure: Fusion proteins and surface plasmon resonance analysis. Surface plasmon resonance (SPR) measurements were performed on a BIAcore™ (Pharmacia). The GST-SHP-1.SH2(NC), GST-SHP-1.SH2(N), GST-SHP-1.SH2(C), GST-SHIP.SH2 fusion proteins generated from the murine phosphatase cDNA, were purified from DH5α lysates. Briefly, overnight culture at 37° C. in LB medium containing 50 μg/ml ampicillin was diluted 1/10 in fresh medium, and incubated until the absorbance at 600 nm reaches 1-2. At that point, IPTG was added (1 mM), and incubation continued for an additional 4 hours at 37° C. After centrifugation, bacteria pellet was resuspended in TENGN buffer (50 mM Tris pH 8, 1 mM EDTA, 10% glycerol, 1% NP40, 1 mM DTT, 1 mM PMSF, 10 μg/ml aprotinin and 10 μg/ml leupeptine). Bacteria were lysed by sonication. After centrifugation, supernatant was incubated with Glutathione-Sepharose 4B beads (Pharmacia) overnight at 4° C. with slow shaking. After 3 washes with 50 mM Tris pH 8, elution of the fusion protein was carried out using 50 mM Tris pH 8 supplemented with 10 mM reduced glutathione. […] Protein purity was assessed by 12.5% SDS-PAGE, and Coomassie blue staining. […] Then, biotinylated peptides were injected, and their binding to streptavidine-coated microchips was assessed using anti-phosphotyrosine 4G10 mAb (UHI).
# [2] = target: T2, SHIP polyinositol phosphatase from …; experiment: cell lysate adsorption to peptide beads, immunoblot (RBL-2H3), FIG. 15A
# Procedure: In an attempt to characterize the function of these putative ITIMs, cell lysates were incubated with phosphorylated and nonphosphorylated synthetic peptides corresponding to the N-terminal and the C-terminal I/VxYxxL stretches present in NKG2A intracytoplasmic domain. Cell lysates absorbed to peptides were then assayed by immunoblotting for the presence of the phosphatases known to interact with phosphorylated ITIMs, i.e. the protein tyrosine phosphatases SHP-1 and SHP-2, as well as the polyinositol phosphate phosphatase, SHIP. In parallel, lysates adsorption were performed using control peptides corresponding to ITIMs present in Ig-like ITIM bearing receptors such as human KIRs (p58.2/CD158b, a receptor for HLA-Cw3) and mouse FcγRIIB, as well as in mouse lectin-like ITIM-bearing receptor, such as Ly-49A.
# As shown in FIG. 15A (lanes 1 and 2), both N- and C-terminal I/VxYxxL stretches present in NKG2A associate with SHP-1 and SHP-2 in vitro, but no binding to SHIP was detected. Similar patterns of association were obtained using the phosphorylated ITIM peptides of […] and p58.2 KIR (FIG. 15A, lanes 3 to 5). In contrast, FcγRIIB phosphorylated ITIM peptides also associate with SHIP (FIG. 15A, lane 6). No association of phosphatases with nonphosphorylated peptides corresponding to FcγRIIB (FIG. 15A, lane 7) and NKG2A N- and C-terminal I/VxYxxL stretches was detected. When nonphosphorylated and phosphorylated peptides were used to adsorb lysates prepared from ³⁵S methionine/cysteine-labeled cells, only two bands around 64 and 68 kDa selectively associate with both phosphorylated NKG2A N- and C-terminal I/VxYxxL stretches, as compared to nonphosphorylated ones (FIG. 15B). The 64 and 68 kDa proteins which bind to phosphorylated NKG2A peptides correspond to SHP-1 and SHP-2 apparent molecular weight respectively, supporting the immunoblotting results. Therefore, our results define the two NKG2A I/VxYxxL stretches as ITIMs which appear to function similarly to other ITIMs present in inhibitory receptors for MHC class I molecules, i.e. KIRs and Ly-49 molecules. Using recombinant soluble tandem SH2 domains of SHP-1 and SHP-2, we confirmed by surface plasmon resonance that both NKG2A ITIM phosphopeptides directly associate with the SH2 domains of SHP-1 and SHP-2, but not with the SH2 domain of SHIP (FIG. 16).
# [3] = target: T3, SHP-2 protein tyrosine phosphatase from …; experiment: cell lysate adsorption to peptide beads, immunoblot (RBL-2H3)
# [4] = target: T4, SHP-1 protein tyrosine phosphatase from RBL-2H3 cell lysates (rat (cell line RBL-2H3), UniProt P81718 1-613); experiment: as above
# T4 construct: Detected by immunoblot with anti-SHP-1 mAb
# T4 sequence (P81718 whole entry): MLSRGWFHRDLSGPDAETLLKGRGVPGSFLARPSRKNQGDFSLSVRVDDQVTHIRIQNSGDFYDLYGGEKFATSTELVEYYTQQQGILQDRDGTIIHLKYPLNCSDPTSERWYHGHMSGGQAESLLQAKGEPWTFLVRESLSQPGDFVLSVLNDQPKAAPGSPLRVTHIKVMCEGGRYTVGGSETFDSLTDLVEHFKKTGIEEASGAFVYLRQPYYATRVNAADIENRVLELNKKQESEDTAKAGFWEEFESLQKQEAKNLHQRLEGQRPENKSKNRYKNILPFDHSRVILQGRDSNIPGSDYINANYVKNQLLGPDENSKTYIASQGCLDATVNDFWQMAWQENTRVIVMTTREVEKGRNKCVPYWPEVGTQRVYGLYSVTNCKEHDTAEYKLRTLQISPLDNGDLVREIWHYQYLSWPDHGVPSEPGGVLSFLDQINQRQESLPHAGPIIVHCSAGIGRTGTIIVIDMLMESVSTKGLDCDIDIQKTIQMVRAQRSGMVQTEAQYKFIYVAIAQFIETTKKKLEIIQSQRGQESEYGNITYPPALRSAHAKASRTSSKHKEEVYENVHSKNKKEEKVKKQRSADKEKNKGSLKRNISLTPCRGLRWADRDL
Binder,binding result [1],binding result [2],binding result [3],binding result [4]
Biotin-DEQDPQEVT[pY]AQLNH (also called p58.183.1; phosphorylated N-terminal KIR ITIM peptide) [phosphorylated p58.2.1 peptide (N-terminal KIR ITIM)],no binding,no binding,–,–
Biotin-RPSQRPKTPPTDIIV[pY]TELPNAEP (also called p58.183.2; p58.133.2) [phosphorylated p58.2.2 peptide (C-terminal KIR ITIM)],no binding,no binding,–,–
Biotin-DEQDPQEAT[pY]AQLN (also called mutated KIR ITIM peptide) [phosphorylated p58.2.1-V301A peptide],–,–,no binding,no binding
